Measured values as given in patent US20260258115A1 (MAPP BIOPHARMACEUTICAL, published 2026).

Experiments:
[1] = target: T1, RSV F on RSV subtype A virus (RSV-A2) (Respiratory Syncytial Virus, subtype A, …, UniProt P03420 26-574); assay: cell-based or functional assay
[2] = target: T2, RSV prefusion F (preF), DS-Cav1 stabilized trimer, subtype A (Respiratory Syncytial Virus, subtype A, UniProt P03420 26-513); assay: BLI, IgG on anti-human IgG sensors
[3] = target: T3, RSV postfusion F (postF), F ΔFP trimer, subtype A (Respiratory Syncytial Virus, subtype A, UniProt P03420 26-513); assay: BLI, IgG on anti-human IgG sensors, 100 nM antigen, apparent KD
[4] = target: T1, RSV F on RSV subtype A virus (RSV-A2); assay: cell-based or functional assay; remark: listed apart in the source
[5] = target: RSV F on RSV subtype B virus (mKate-RSV B 18537) (Respiratory Syncytial Virus, subtype B, …, UniProt P13843 26-574); assay: cell-based or functional assay
[6] = target: T2, RSV prefusion F (preF), DS-Cav1 …; assay: BLI, apparent IgG KD (Table 9A)
[7] = target: T3, RSV postfusion F (postF), F ΔFP trimer, …; assay: BLI, apparent IgG KD (Table 9A)
[8] = target: RSV prefusion F (preF), DS-Cav1 (respiratory syncytial virus, UniProt P03420 26-513); assay: BLI, IgG on sensor
[9] = target: RSV fusion glycoprotein (RSV F) on RSV-A2 virus (respiratory syncytial virus, UniProt P03420 26-574); assay: cell-based or functional assay
[10] = target: RSV postfusion F (postF), F deltaFP (respiratory syncytial virus, UniProt P03420 26-513); assay: BLI, IgG on sensor, 100 nM antigen
[11] = target: Respiratory Syncytial Virus fusion glycoprotein (RSV F) on RSV-A2 virus (Respiratory Syncytial Virus, UniProt P03420 26-574); assay: cell-based or functional assay
[12] = target: RSV prefusion F (preF), DS-Cav1 (Respiratory Syncytial Virus, UniProt P03420 26-513); assay: BLI (ForteBio Octet), IgG on anti-human IgG biosensors
[13] = target: RSV postfusion F (postF), F ΔFP (Respiratory Syncytial Virus, UniProt P03420 26-513); assay: BLI (ForteBio Octet), IgG on anti-human IgG biosensors, 100 nM antigen, apparent (IgG) KD
[14] = target: T4, postF (RSV F ΔFP) with a C-terminal HRV 3C cleavage site, 8xHisTag and StrepTagII (Respiratory Syncytial Virus, UniProt P03420 26-109; P03420 147-513); assay: SPR, postF captured on NTA chip, Fab in solution, steady-state fit
T4 construct: also called postfusion F; not shown: C-terminal HRV 3C cleavage site, 8xHisTag and StrepTagII

[15] = target: T5, preF (DS-Cav1) with a C-terminal 8X HisTag and AviTag (Respiratory Syncytial Virus, UniProt P03420 26-513); assay: SPR, preF (DS-Cav1) captured on NTA chip, Fab in solution, 1:1 model
T5 construct: not shown: C-terminal 8X HisTag and AviTag

B1: ADI-43638 (antibody, V domains shown)
VH: QVQLQQWGAGLLKPSETLSLTCAVYGGSFSGYYWSWIRQPPGKGLEWIGEINHSGSTNYNPSLKSRVTISVDTSKNQFSLKLSSVTAADTAVYYCARGVPVLRYFDWLRFGYGMDVWGQGTTVTVSS
VL: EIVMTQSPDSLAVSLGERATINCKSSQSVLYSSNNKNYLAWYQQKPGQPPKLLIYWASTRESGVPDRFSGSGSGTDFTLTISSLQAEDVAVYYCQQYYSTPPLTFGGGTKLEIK
**Q.** With B1 as the binder, how does the “Neutralization IC50 (RSV subtype A)” value [1] read?
**A.** Its value is greater than 25 µg/mL.

**Q.** Does B1 bind [2]?
**A.** Result: no binding (tested: 100 nM antigen)

**Q.** What about the Kd [3] of the same binder?
**A.** The Kd was 9.93 nM.

B2: ADI-43639 (antibody, V domains shown)
VH: QVQLVQSGSELKKPGASVKVSCKASGYTFTSYAMNWVRQAPGQGLEWMGWINTNTGNPTYAQGFTGRFVFSLDTSVSTAYLQISSLKAEDTAVYYCAAYGIHDAFDIWGQGTMVTVSS
VL: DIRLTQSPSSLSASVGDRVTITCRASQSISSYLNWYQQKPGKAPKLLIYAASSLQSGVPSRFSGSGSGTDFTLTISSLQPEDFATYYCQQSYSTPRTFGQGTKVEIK
**Q.** Which results are given for B2?
**A.** Neutralization IC50 (RSV subtype A) [1]: > 25 µg/mL; binding result [2]: no binding (tested: 100 nM antigen); Kd [3]: 233 nM

B3: ADI-14405 (antibody, V domains shown)
VH: QVQLVQSGTEVKKPGASVKVSCKASGYTFTNYDISWVRQAPGQGLEWMGWISGSTGNTIYAQNLQGRLTMTTDTSTSTAYMELRSLRSDDTAIYYCARDNVGYASGNYFDYWGQGTLVTVSS
VL: SYVLTQPPSVSVAPGKTARIPCGGNNIGSKSVHWYQQRPGQAPVLVIYYDSVRPSGIPERFSGSNSGNTATLTISTVEAGDEADFYCQVWDSSRDHEVFGGGTKLTVL
notes: also called Ab 71; Antibody Number 71
**Q.** Which results are given for B3?
**A.** Neutralization - RSV A2 IC50 (pM) [4]: 58.3 pM; neut IC50 (ug/ml) subtype A (graham) [4]: 0.04 µg/mL; neut IC50 (ug/ml) subtype B (graham) [5]: 0.04 µg/mL; Kd [6]: 0.14 nM; Kd [7]: 12 nM

B4: ADI-20975 (antibody, V domains shown)
VH: QVQLVESGTHVKKPGASVKVSCEASDDTFNNKGIVWVRQAPGQGLEWMGWIRPNNGNTKYAQKFQGRVTMTTDASTNTAYMELRSLRSGDTAVYYCAREQFKWNDFYFDYWGQGILVTVSS
VL: SYELMQPPSVSVAPGQTATITCGGSNIGSETVHWYQQKPGQAPVLVVHDDTDRPSGIPERFSGSNSGNTATLTISGVEAGDEADFYCQVRDSRTDDVVFGGGTKLTVL
**Q.** With B4 as the binder, how does the “Neutralization - RSV A2 IC50 (pM)” value [4] read?
**A.** The value was 67 pM.

**Q.** What about the “neut IC50 (ug/ml) subtype A (graham)” value [4] of the same binder?
**A.** The value was 0.05 µg/mL.

**Q.** And the “neut IC50 (ug/ml) subtype B (graham)” value [5]?
**A.** The value was 0.49 µg/mL.

**Q.** What about the Kd [6] of the same binder?
**A.** The Kd was 0.092 nM.

**Q.** What about the Kd [7] of the same binder?
**A.** The Kd was 0.15 nM.

B5: ADI-41221 (antibody, V domains shown)
VH: EVQLLESGGGLVKPGGSLRLSCAASGFTFSDYTMNWVRQAPGKGLEWVSSISITSSHIYYADSVKGRFTISRDNAKNSLYLQINSLRAEDTAAYYCARELGFASSSYSYYYGMDVWGQGTTVTVSS
VL: QSALTQPRSVSGSPGQSVTISCTGTSSDVGDYNSVSWYQQHPGTAPKLIIFDVTQRPSGVPDRFSGSKSANTASLTISGLQPEDEADYYCCSFAGNYVFGTGTKVTVL
**Q.** B5 was tested. Which “Neutralization - RSV A2 IC50 (pM)” value [4] did it give?
**A.** Its value is 65.4 pM.

**Q.** And the “neut IC50 (ug/ml) subtype A (wright)” value [4]?
**A.** The value was 0.04 µg/mL.

**Q.** And the Kd [6]?
**A.** Its Kd is 0.3 nM.

**Q.** What about the Kd [7] of the same binder?
**A.** The Kd was 0.32 nM.

B6: ADI-41229 (antibody, V domains shown)
VH: QVQLVQSGGGVVQPGRSLKLSCAASGFTFKSYGMHWVRQAPGKGLEWVAVISYDEINKYYADSVKGRFTISRDYSKNTLSLQMNSLTTEDTAMYYCAKPKTTGYYYLDAFDFWGQGTMVTVSS
VL: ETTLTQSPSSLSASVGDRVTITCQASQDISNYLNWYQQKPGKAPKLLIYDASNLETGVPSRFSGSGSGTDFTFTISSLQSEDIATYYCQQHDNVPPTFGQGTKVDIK
notes: also called Ab 551; Antibody Number 551
**Q.** For B6, which “Neutralization - RSV A2 IC50 (pM)” value [4] is on record?
**A.** Its value is 228 pM.

**Q.** What about the “neut IC50 (ug/ml) subtype A (wright)” value [4] of the same binder?
**A.** Its value is 0.066 µg/mL.

**Q.** What about the Kd [6] of the same binder?
**A.** The Kd was 1.1 nM.

**Q.** And the Kd [7]?
**A.** Its Kd is 0.71 nM.

B7: ADI-41596 (antibody, V domains shown)
VH: QVQLQQWGAGLLKPSETLSLTCAVYGDSFSGYFWTWIRQPPGKGLEWIGEINLSGSTNYNPSLKSRVTILVDTSKNQFSLKLSSVTAADTAVYYCARGLHVSDDQDSSGYYFHPGSFDYWGQGTLVTVSS
VL: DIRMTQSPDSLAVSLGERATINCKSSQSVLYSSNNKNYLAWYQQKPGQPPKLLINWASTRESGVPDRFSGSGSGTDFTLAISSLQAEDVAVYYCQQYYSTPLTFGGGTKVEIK
notes: also called Ab 870; Antibody Number 870
**Q.** How did the “Neutralization - RSV A2 IC50 (pM)” value [4] turn out when B7 was run?
**A.** Its value is 180 pM.

**Q.** And the “neut IC50 (ug/ml) subtype A (wright)” value [4]?
**A.** Its value is 0.054 µg/mL.

**Q.** What about the Kd [6] of the same binder?
**A.** The Kd was 0.3 nM.

**Q.** And the Kd [7]?
**A.** Its Kd is 0.44 nM.

B8: ADI-41435 (antibody, V domains shown)
VH: EVQLLESGGGLVKPGGSLRLSCAASGFTFSSYSLNWVRQAPGKGLEWVSSISSSGTYIFYADSVKGRFTISRDNAKDSLFLQMNSLRAEDTAVYYCARARDMGNYDILTGYYRVDAFDIWGQGTMVTVSS
VL: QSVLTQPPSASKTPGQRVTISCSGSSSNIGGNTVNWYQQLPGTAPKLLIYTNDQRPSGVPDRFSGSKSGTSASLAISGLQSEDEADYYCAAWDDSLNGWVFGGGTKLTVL
notes: IgG1
**Q.** Which results are given for B8?
**A.** binding result [8]: no binding (tested: 100 nM antigen); Neutralization IC50 (RSV subtype A) [9]: > 25 µg/mL; Kd [10]: 3.47 nM

B9: ADI-43647 (antibody, V domains shown)
VH: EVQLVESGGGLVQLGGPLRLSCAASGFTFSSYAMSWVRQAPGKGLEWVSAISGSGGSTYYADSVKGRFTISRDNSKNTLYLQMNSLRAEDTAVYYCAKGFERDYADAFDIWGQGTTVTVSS
VL: DIRMTQSPSSVSASVGDRVTITCRASQGISSWLAWYQQKPGKAPKLLIYAASSLQSGVPSRFSGSGSGTDFTLTISSLQPEDFATYYCQQANSFPITFGQGTRLEIK
notes: also called Ab 828; Antibody Number 828
**Q.** What does the source list for B9?
**A.** Neutralization IC50 (RSV subtype A) [11]: > 25 µg/mL; binding result [12]: no binding; Kd [13]: 44.6 nM

B10: ADI-43648 (antibody, V domains shown)
VH: EVQLVQSGAEVKKPGASVKVSCKASGYTFTSYDINWVRQATGQGLEWMGWMNPNSGNTGYAQKFQGRVTMTRNTSISTAYMELSSLRSEDTAVYYCATRPAALDYWGQGTLVTVSS
VL: QPVLTQPLSVSVALGQTARITCGGNNIGSKNVHWYQQKPGQAPVLIIYRDSNRPSGIPERFSGSNSGNTATLTISRAQAGDEADYYCQVWDSSTWVFGGGTKLTVL
**Q.** B10 was tested. Which “Neutralization IC50 (RSV subtype A)” value [11] did it give?
**A.** Its value is greater than 25 µg/mL.

**Q.** Does B10 bind [12]?
**A.** Result: no binding

**Q.** And the Kd [13]?
**A.** The Kd was 28.6 nM.

B11: ADI-14359 R50L Fab (germline reverted variant) (Fab, V domains shown)
VH: QVQLVQSGPALVKPTQTLTLTCTFSGFSLSTSGMCVSWIRQPPGKALEWLALIDWDDDKYYSTSLKTRLTISKDTSKNQVVLTMTNMDPVDTATYYCARATNYDSSGYYSLYFDYWGQGTLVTVSS
VL: not shown
**Q.** For B11, which “fold reduction in affinity relative to ADI-14359 Fab” value [14] is on record?
**A.** Its value is greater than 30 fold.

B12: ADI-19425 Fab variant, light chain Y31A (Fab, V domains shown)
VH: EVQLVESGGGLVKPGGSLRLSCAASGFTFSSYSMNWVRQAPGKGLEWVSSISSSSSYIYYADSVKGRFTISRDNAKNSLYLQMNSLRAEDTAVYYCARLGYCSGGSCHFDYWGQGTLVTVSS
VL: QPVLTQPPSVSGAPGQRVTISCTGSSSNIGAGADVHWYQQLPGTAPKLLIYGNSNRPSGVPDRFSGSKSGTSASLAITGLQAEDEADYYCQSYDSSLSGFYVFGTGTKLTVL
notes: also called Y33A
**Q.** How did the “fold reduction in affinity relative to ADI-19425 Fab” value [15] turn out when B12 was run?
**A.** The value was greater than 20 fold.

B13: ADI-19425 Fab variant, light chain Y91A (Fab, V domains shown)
VH: EVQLVESGGGLVKPGGSLRLSCAASGFTFSSYSMNWVRQAPGKGLEWVSSISSSSSYIYYADSVKGRFTISRDNAKNSLYLQMNSLRAEDTAVYYCARLGYCSGGSCHFDYWGQGTLVTVSS
VL: QPVLTQPPSVSGAPGQRVTISCTGSSSNIGAGYDVHWYQQLPGTAPKLLIYGNSNRPSGVPDRFSGSKSGTSASLAITGLQAEDEADYYCQSADSSLSGFYVFGTGTKLTVL
notes: also called Y93A
**Q.** B13 was tested. Which “fold reduction in affinity relative to ADI-19425 Fab” value [15] did it give?
**A.** Its value is greater than 80 fold.
